Publication PMC7929502

Biological target: T1, human Derlin-1 (hDERL1), full length, purified from Expi293F cells (human), Q9BUN8
T1 chain: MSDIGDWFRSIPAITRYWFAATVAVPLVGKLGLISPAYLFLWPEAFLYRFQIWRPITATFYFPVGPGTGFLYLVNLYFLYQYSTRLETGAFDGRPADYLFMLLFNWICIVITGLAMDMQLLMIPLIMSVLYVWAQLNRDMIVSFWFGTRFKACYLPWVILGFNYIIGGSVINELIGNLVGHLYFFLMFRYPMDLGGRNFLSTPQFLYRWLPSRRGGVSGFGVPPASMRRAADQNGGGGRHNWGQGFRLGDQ
Assay: cryo-EM structure
Conditions: remark: other sources report otherwise

stoichiometry N: 4
B1: human Derlin-1 (hDERL1), full length, purified from Expi293F cells, Q9BUN8-1 1-251 (natural protein)
chain: MSDIGDWFRSIPAITRYWFAATVAVPLVGKLGLISPAYLFLWPEAFLYRFQIWRPITATFYFPVGPGTGFLYLVNLYFLYQYSTRLETGAFDGRPADYLFMLLFNWICIVITGLAMDMQLLMIPLIMSVLYVWAQLNRDMIVSFWFGTRFKACYLPWVILGFNYIIGGSVINELIGNLVGHLYFFLMFRYPMDLGGRNFLSTPQFLYRWLPSRRGGVSGFGVPPASMRRAADQNGGGGRHNWGQGFRLGDQ
